Laboratory results as given in article PMC9108610 (2022).

Target: T1, CSC (Vps26/Vps29-GFP/Vps35) (Saccharomyces cerevisiae, UniProt P40335)
T1 chain 1: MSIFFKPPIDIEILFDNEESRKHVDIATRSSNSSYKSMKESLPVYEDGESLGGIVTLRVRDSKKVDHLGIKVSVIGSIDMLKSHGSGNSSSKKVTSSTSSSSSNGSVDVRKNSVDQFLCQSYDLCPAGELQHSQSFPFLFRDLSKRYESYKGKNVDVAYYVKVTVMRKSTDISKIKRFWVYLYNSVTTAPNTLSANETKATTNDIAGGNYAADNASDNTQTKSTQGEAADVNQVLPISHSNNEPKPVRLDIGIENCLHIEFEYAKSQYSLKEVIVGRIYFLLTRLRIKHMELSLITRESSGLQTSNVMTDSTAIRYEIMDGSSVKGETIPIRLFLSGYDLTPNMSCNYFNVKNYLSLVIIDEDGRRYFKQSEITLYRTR
T1 chain 2: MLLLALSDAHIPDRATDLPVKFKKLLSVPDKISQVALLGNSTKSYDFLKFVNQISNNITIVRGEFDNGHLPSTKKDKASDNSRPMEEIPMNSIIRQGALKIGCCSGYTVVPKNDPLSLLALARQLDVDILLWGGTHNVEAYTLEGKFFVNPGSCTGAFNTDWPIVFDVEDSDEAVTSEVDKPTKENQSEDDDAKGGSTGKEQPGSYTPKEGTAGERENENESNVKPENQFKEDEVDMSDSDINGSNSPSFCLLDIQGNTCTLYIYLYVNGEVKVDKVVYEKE
T1 chain 3: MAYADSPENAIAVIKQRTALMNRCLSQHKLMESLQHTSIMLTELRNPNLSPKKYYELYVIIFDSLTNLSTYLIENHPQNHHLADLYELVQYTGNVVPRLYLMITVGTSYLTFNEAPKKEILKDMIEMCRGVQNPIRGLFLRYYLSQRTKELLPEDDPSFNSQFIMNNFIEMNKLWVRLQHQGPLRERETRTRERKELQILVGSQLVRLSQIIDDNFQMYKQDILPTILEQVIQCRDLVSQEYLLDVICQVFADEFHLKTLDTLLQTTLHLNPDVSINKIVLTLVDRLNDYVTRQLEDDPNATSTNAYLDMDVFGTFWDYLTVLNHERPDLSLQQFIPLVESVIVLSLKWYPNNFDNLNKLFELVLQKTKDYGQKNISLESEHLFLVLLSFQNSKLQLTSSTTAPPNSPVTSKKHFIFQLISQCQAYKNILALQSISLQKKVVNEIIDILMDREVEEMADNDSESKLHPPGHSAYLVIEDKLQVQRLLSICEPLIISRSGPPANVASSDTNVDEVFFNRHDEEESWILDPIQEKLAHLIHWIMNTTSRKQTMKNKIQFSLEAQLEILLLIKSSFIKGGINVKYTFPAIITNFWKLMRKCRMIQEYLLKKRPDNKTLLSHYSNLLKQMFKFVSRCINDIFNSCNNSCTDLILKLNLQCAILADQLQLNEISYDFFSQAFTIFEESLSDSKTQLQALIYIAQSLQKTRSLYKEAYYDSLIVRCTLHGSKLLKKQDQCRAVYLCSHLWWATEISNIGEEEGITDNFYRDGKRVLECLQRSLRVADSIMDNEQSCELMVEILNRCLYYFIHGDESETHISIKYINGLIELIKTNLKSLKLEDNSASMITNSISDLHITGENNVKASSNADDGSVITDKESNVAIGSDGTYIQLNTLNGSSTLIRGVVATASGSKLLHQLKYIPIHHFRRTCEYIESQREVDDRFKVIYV
Experiment: fluorescence titration (Vps29-GFP emission increase)

Kd: ~0.05 µM
B1: Atg18 (protein)
chain: MSDSSPTINFINFNQTGTCISLGTSKGFKIFNCEPFGKFYSEDSGGYAIVEMLFSTSLLALVGIGDQPALSPRRLRIINTKKHSIICEVTFPTSILSVKMNKSRLVVLLQEQIYIYDINTMRLLHTIETNPNPRGLMAMSPSVANSYLVYPSPPKVINSEIKAHATTNNITLSVGGNTETSFKRDQQDAGHSDISDLDQYSSFTKRDDADPTSSNGGNSSIIKNGDVIVFNLETLQPTMVIEAHKGEIAAMAISFDGTLMATASDKGTIIRVFDIETGDKIYQFRRGTYATRIYSISFSEDSQYLAVTGSSKTVHIFKLGHSMSNNKLDSDDSNMEEAAADDSSLDTTSIDALSDEENPTRLAREPYVDASRKTMGRMIRYSSQKLSRRAARTLGQIFPIKVTSLLESSRHFASLKLPVETNSHVMTISSIGSPIDIDTSEYPELFETGNSASTESYHEPVMKMVPIRVVSSDGYLYNFVMDPERGGDCLILSQYSILMD
